Data: patent publication US20210244785A1

Tests used:
[1] = tryptophan fluorescence, urea dissociation of multimeric peptide complexes, 5 µM peptide
[2] = tryptophan fluorescence, urea dissociation of multimeric peptide complexes, 25 µM peptide
[3] = biological target: S. epidermidis delta-haemolysin (Staphylococcus epidermidis); assay: tryptophan fluorescence, urea dissociation of multimeric peptide complexes, 5 µM peptide
[4] = biological target: S. epidermidis delta-haemolysin (Staphylococcus epidermidis); assay: tryptophan fluorescence, urea dissociation of multimeric peptide complexes, 25 µM peptide

Substance: S. epidermidis delta-haemolysin
- midpoint of urea unfolding curve (5 µM peptide) [1]: The midpoints of the unfolding curves of 5 µM and 25 µM were 2.14 and 3.20M urea
- midpoint of urea unfolding curve (25 µM peptide) [2]: The midpoints of the unfolding curves of 5 µM and 25 µM were 2.14 and 3.20M urea

Substance: S. epidermidis delta-haemolysin (peptide)
- deltaG (H2O) (5 µM peptide) [3]: 1.43 kcal/mol
- deltaG (H2O) (25 µM peptide) [4]: 1.57 kcal/mol
